Reference: PMC8093215 (Nature Communications, 2021)
Read-outs that look alike come from different tables or passages of the source. No end group written: not given here. trimethyl = trimethyl-lysine; dimethyl = dimethyl-lysine

T1: human ORC1 BAH domain (residues 1-185) (human, UniProt Q13415 1-185)
T1 construct: human origin recognition complex subunit 1 (ORC1), BAH domain, residues 1-185
T1 sequence (looked up): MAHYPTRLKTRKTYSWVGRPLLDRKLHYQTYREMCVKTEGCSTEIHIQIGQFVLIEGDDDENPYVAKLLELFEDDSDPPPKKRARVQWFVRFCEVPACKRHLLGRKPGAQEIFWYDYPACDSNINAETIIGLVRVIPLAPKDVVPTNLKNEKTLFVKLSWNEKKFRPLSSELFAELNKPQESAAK

T2: bovine DNMT1 BAH1 domain (residues 725–897, residues 838–858 replaced by GAGSA) (bovine, UniProt Q24K09 725-837; Q24K09 859-897)
T2 construct: bovine DNMT1 BAH1 domain, residues 725-837; linker that replaces residues 838-858 to facilitate crystallization; bovine DNMT1 BAH1 domain, residues 859-897; the last two beta-strands were domain-swapped during crystallization; also called bDNMT1_(BAH1); source: E. coli BL21(DE3) RIL, purified (Ni, ULP1 cleavage, Q XL, Ni, SEC); not shown: His6-SUMO, N-terminal, cleaved
T2 chain: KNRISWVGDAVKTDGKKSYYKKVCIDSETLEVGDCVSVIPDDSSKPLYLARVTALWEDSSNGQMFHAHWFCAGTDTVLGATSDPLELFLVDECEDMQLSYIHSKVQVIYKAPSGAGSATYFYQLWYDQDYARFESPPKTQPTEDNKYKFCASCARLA


What was measured:
[1] = target: T3, human DNMT1 BAH1 domain (residues 728-900), E821A (human, UniProt P26358 728-900, E821A); experiment: ITC; 1 mM H4K20me peptide titrated over 0.1 mM hDNMT1 BAH1 or BAH2 domain; 25 mM Tris-HCl pH 7.5, 100 mM NaCl, 2 mM DTT; 5 °C; single-site binding mode; conditions: both partners purified
T3 construct: numbering on isoform 1 of 1616 amino acids; also called hDNMT1_(BAH1), E821A; source: E. coli BL21(DE3) RIL, purified as the wild-type protein; not shown: His6-SUMO, N-terminal, cleaved

[2] = target: T4, human DNMT1 BAH1 domain (residues 728-900), E819A (human, UniProt P26358 728-900, E819A); experiment: as above; conditions: both partners purified
T4 construct: numbering on isoform 1 of 1616 amino acids; also called hDNMT1_(BAH1), E819A; source: E. coli BL21(DE3) RIL, purified as the wild-type protein; not shown: His6-SUMO, N-terminal, cleaved

[3] = target: T5, human DNMT1 BAH1 domain (residues 728-900), D768A (human, UniProt P26358 728-900, D768A); experiment: as above; conditions: both partners purified
T5 construct: numbering on isoform 1 of 1616 amino acids; also called hDNMT1_(BAH1), D768A; source: E. coli BL21(DE3) RIL, purified as the wild-type protein; not shown: His6-SUMO, N-terminal, cleaved

[4] = target: T1, human ORC1 BAH domain (residues 1-185); experiment: ITC; 0.45 mM H4K20me2 peptide titrated over 64 µM ORC1 BAH domain; 20 mM Tris-HCl pH 7.5, 100 mM NaCl, 1 mM DTT; 5 °C; single-site binding mode; conditions: both partners purified
[5] = target: T6, hDNMT1 BAH1 domain from the His6-MBP vector (human, UniProt P26358 728-900); experiment: ITC; hDNMT1 BAH1 (WT, W796A or Mut^YW) with the autoinhibitory linker peptide hDNMT1(714-727); 5 °C; single-site fit; conditions: both partners purified
T6 construct: numbering on isoform 1 of DNMT1 with 1616 amino acids; also called WT; source: E. coli BL21(DE3) RIL, purified (Ni, ion exchange, TEV cleavage, Ni, SEC); not shown: His6-MBP, N-terminal, cleaved

[6] = target: T7, MBP-tagged human DNMT1 residues 351-1600, M718A/H719A/K723A/K724A/K725A/Q726A (Mut^linker) (human, UniProt P26358 351-1600, M718A | H719A | K723A | K724A | K725A | Q726A); experiment: ITC
T7 construct: numbering on isoform 1 of 1616 amino acids; also called MBP-Mut^linker; source: E. coli BL21(DE3) RIL, purified

[7] = target: T7, MBP-tagged human DNMT1 residues …; experiment: ITC; remark: listed apart in the source
[8] = target: T2, bovine DNMT1 BAH1 domain (residues …); experiment: crystal structure; bDNMT1 BAH1 mixed with peptide 1:3; hanging drop, 13% PEG1500, 20 mM DTT, 200 mM L-proline, 4 °C; HEPES pH 7.5 (K20me3) or MES pH 6.5 (K20me2); conditions: both partners purified
[9] = target: T8, human DNMT1 BAH1 domain, wild type, His6-MBP construct used for the autoinhibitory linker binding (human, UniProt P26358 728-900); experiment: ITC; hDNMT1 BAH1 domain (WT, W796A or Mut^YW) with the autoinhibitory linker peptide hDNMT1(714-727); 5 °C; single-site binding mode; conditions: both partners purified
T8 construct: numbering on isoform 1 of 1616 amino acids; also called hDNMT1_(BAH1), WT; source: E. coli BL21(DE3) RIL, purified (Ni, ion exchange, TEV cleavage, Ni, SEC)
T8 sequence (P26358 728-900): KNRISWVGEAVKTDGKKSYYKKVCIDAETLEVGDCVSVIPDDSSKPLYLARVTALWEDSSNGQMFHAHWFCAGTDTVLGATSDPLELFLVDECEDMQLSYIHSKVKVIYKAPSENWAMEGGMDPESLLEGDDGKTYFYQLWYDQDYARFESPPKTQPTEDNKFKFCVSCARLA

T7 sequence (P26358 351-1600 M718A/H719A/K723A/K724A/K725A/Q726A): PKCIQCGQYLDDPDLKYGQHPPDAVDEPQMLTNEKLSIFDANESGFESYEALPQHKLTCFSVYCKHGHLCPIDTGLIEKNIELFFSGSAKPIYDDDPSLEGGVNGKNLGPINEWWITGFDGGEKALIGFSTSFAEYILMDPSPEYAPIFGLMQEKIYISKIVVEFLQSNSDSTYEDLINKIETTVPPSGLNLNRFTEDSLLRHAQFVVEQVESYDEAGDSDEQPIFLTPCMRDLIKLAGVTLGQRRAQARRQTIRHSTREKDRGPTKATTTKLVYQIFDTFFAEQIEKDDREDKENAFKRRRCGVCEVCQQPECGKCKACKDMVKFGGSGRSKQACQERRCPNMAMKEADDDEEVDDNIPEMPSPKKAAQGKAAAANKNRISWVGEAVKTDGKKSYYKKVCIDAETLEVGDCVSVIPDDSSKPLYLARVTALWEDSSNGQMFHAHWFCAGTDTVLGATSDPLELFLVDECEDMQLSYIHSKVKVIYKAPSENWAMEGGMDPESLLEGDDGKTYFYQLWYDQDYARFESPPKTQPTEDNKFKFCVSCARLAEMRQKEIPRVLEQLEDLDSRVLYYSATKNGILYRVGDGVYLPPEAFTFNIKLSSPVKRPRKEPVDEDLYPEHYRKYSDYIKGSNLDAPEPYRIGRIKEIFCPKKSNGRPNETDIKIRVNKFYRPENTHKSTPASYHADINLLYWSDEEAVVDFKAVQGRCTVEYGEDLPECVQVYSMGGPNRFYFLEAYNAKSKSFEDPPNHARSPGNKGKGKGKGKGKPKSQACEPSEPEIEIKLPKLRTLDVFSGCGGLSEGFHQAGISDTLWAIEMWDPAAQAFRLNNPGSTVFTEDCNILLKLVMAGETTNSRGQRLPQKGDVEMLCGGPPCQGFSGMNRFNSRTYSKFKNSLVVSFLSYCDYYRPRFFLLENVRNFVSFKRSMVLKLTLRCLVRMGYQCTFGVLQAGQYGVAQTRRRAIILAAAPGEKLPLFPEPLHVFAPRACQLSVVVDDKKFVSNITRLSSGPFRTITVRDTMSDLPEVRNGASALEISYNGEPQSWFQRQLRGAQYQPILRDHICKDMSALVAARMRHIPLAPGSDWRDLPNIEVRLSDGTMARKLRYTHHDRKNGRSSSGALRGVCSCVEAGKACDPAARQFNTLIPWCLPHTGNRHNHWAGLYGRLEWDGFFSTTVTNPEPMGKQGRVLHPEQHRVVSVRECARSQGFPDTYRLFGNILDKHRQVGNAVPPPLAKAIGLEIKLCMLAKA
T3 sequence (P26358 728-900 E821A): as the sequence (P26358 728-900) above, with E94A counted along it
T4 sequence (P26358 728-900 E819A): as the sequence (P26358 728-900) above, with E92A counted along it
T5 sequence (P26358 728-900 D768A): as the sequence (P26358 728-900) above, with D41A counted along it
T6 sequence (P26358 728-900): as the sequence (P26358 728-900) above

Row | Kd [1] | stoichiometry N [1] | Kd [2] | stoichiometry N [2] | Kd [3] | stoichiometry N [3] | binding result [8] | Binder | further results
1 | 35.4 µM | 0.83 | 12.3 µM | 0.87 | 9.3 µM | 0.92 | – | GAKRHRK(dimethyl)VLRDNY (histone H4, residues 14-25; additional C-terminal tyrosine for spectroscopic quantification; source: synthetic peptide (LifeTein)) [H4(14-25)K20me2 peptide] | Kd [4]: 8.7 µM; stoichiometry N [4]: 0.75
2 | – | – | – | – | – | – | – | SPKKMHQGKKKKQNY (numbering on isoform 1 of DNMT1 with 1616 amino acids; additional C-terminal tyrosine for spectroscopic quantification; source: synthetic peptide (LifeTein)) [autoinhibitory linker peptide hDNMT1(714–727)] | Kd [5]: ~70 µM
3 | 91.7 µM | 0.88 | 9.4 µM | 0.73 | 11.5 µM | 0.82 | – | GAKRHRKVLRDNY (trimethyl-lysine at K20, histone H4, residues 14-25; additional C-terminal tyrosine for spectroscopic quantification; also called H4K20me3 peptide; source: synthetic peptide (LifeTein)) [H4(14-25)K20me3 peptide] | Kd [6]: 131 µM; Kd [7]: 122 µM; stoichiometry N [7]: 1.45
4 | – | – | – | – | – | – | binds | GAKRHRK(dimethyl)VLRDNY (histone H4, residues 14-25; additional C-terminal tyrosine for spectroscopic quantification; also called H4K20me2 peptide; source: synthetic peptide (LifeTein)) [H4(14–25)K20me2 peptide] | –
5 | – | – | – | – | – | – | – | SPKKMHQGKKKKQNY (numbering on isoform 1 of 1616 amino acids; additional C-terminal tyrosine for spectroscopic quantification; source: synthetic peptide (LifeTein)) [hDNMT1(714-727) autoinhibitory linker peptide] | stoichiometry N [9]: 1
6 | – | – | – | – | – | – | binds | GAKRHRK(trimethyl)VLRDNY (histone H4, residues 14-25; additional C-terminal tyrosine for spectroscopic quantification; also called H4K20me3 peptide; source: synthetic peptide (LifeTein)) [H4(14–25)K20me3 peptide] | –
